Data on 17 sequences can be found in the Immune Epitope Database (IEDB).

pKd: −log10 of the molar value. Some results are limits rather than exact numbers.

The target in experiment [1] is HLA-B*44:03. The experiment in a line: IEDB peptide-MHC binding, purified MHC/competitive/radioactivity; filed as Kd, often an IC50 or EC50 that approximates it; ≥ and ≤ were set here for values at or beyond the usual limits of such assays.
Experiment [2] concerns the target HLA-B*18:01. Described as above.
Experiment [3] addresses HLA-B*44:02. Described as above.
Experiment [4] deals with HLA-B*45:01. The description is as above.
Experiment [5] has as its target HLA-B*40:01. The description is as above.
Experiment [6] addresses HLA-B*40:02. The experiment is described as above.
In experiment [7] the target is HLA-B*35:01. The description is as above.
For experiment [8], the target named is HLA-A*32:01. Described as above. To be noted: source organism: Dengue virus 4 Philippines/H241/1956.
For experiment [9], the target named is HLA-B*53:01. The description is as above.
Experiment [10] concerns the target HLA-B*51:01. Described as above.
Experiment [11] addresses HLA-B*15:01. As to the kind of experiment: IEDB peptide-MHC binding, purified MHC/competitive/fluorescence; filed as Kd, often an IC50 or EC50 that approximates it; ≥ and ≤ were set here for values at or beyond the usual limits of such assays. To be noted: source organism: Bacillus anthracis str. A0488.
In experiment [12] the target is HLA-A*26:01. Described as above. To be noted: source organism: Influenza A virus (A/Wellington/22/2001(H3N2)).
Experiment [13] deals with HLA-A*26:01. The experiment in a line: IEDB peptide-MHC binding, purified MHC/competitive/radioactivity; filed as Kd, often an IC50 or EC50 that approximates it; ≥ and ≤ were set here for values at or beyond the usual limits of such assays.
Experiment [14] concerns the target HLA-A*23:01. Described as above. Particulars: source organism: SARS coronavirus Tor2.
The target in experiment [15] is HLA-A*30:02. Described as above. To be noted: source organism: SARS coronavirus Tor2.
For experiment [16], the target named is HLA-A*24:02. The description is as above. To be noted: source organism: SARS coronavirus Tor2.
Experiment [17] concerns the target HLA-A*29:02. The experiment is described as above. Particulars: source organism: SARS coronavirus Tor2.
For experiment [18], the target named is HLA-A*02:01. The experiment in a line: IEDB peptide-MHC binding, purified MHC/direct/fluorescence; filed as Kd, often an IC50 or EC50 that approximates it; ≥ and ≤ were set here for values at or beyond the usual limits of such assays. To be noted: source organism: SARS-CoV1.
Experiment [19] addresses HLA-A*31:01. Described as above. Particulars: source organism: SARS-CoV1.
Experiment [20] has as its target HLA-B*58:01. Described as above. Particulars: source organism: SARS-CoV1.
In experiment [21] the target is HLA-B*08:01. The experiment is described as above. To be noted: source organism: SARS-CoV1.
Experiment [22] has as its target HLA-A*03:01. Described as above. To be noted: source organism: SARS-CoV1.
Experiment [23] deals with HLA-B*15:01. The experiment is described as above. To be noted: source organism: SARS-CoV1.
For experiment [24], the target named is HLA-A*01:01. The description is as above. To be noted: source organism: SARS-CoV1.
In experiment [25] the target is HLA-A*11:01. The description is as above. To be noted: source organism: SARS-CoV1.
Experiment [26] addresses HLA-A*26:01. The experiment is described as above. To be noted: source organism: Mycobacterium tuberculosis.
Where [27] appears, read: source organism: Mammarenavirus brazilense.
Where [28] appears, read: source organism: Mammarenavirus lassaense.
Where [29] appears, read: source organism: Mammarenavirus guanaritoense.
Where [30] appears, read: source organism: SARS coronavirus Tor2.
[31] abbreviates: source organism: Dengue virus 4 Philippines/H241/1956.
Setting [32] is: source organism: Dengue virus 1 Brazil/97-11/1997.
Where [33] appears, read: source organism: Dengue virus 3 Martinique/1243/1999.
The mark [34] stands for this setting: source organism: Dengue virus 2 Jamaica/1409/1983.

A word on the pKd: it is the Kd on a negative log10 scale, so that one unit is a factor of ten. Turning to SEIQLQRLC, the negative-log Kd (pKd) in experiment [1] (setting [27]) was 6.49; in [2] (setting [27]) it was 4.98; in experiment [3] (setting [27]), 6.55; in [4] (setting [27]) it was 6.00; in [5] (setting [27]) it was 5.75; in experiment [6] (setting [27]), 7.16.
In the case of ADNLITEML, the pKd is 4.91 in experiment [1] (setting [28]); not above 4.44 in experiment [2] (setting [28]); 5.21 in experiment [3] (setting [28]); not above 4.11 in experiment [4] (setting [28]); not above 4.56 in experiment [5] (setting [28]); 6.38 in experiment [6] (setting [28]).
In the case of GEPKTVKVL, the negative logarithm of the Kd (pKd) in [1] (setting [28]) is not above 4.11; in [2] (setting [28]), not above 4.11; in [3] (setting [28]) it was not above 4.11; in experiment [4] (setting [28]), not above 4.11; in [5] (setting [28]) it was 4.73; in experiment [6] (setting [28]) it was 6.25.
Consider SEDGLDGFDW, for which the pKd in [1] (setting [29]) is 7.67; in [2] (setting [29]) it was not above 4.45; in experiment [3] (setting [29]), 7.67; in experiment [4] (setting [29]), not above 4.25; in experiment [5] (setting [29]), 4.84; in [6] (setting [29]), 4.84.
EEAALCTFL: the pKd is 6.77 in experiment [1] (setting [30]); 4.93 in [2] (setting [30]); 6.34 in experiment [3] (setting [30]); 7.42 in experiment [4] (setting [30]); 6.76 in [5] (setting [30]); 6.08 in experiment [6] (setting [30]).
As for MPLVMAWRTI, the negative logarithm of the Kd (pKd) is 6.15 in [7] (setting [31]), 6.87 in [8], 7.97 in experiment [9] (setting [31]) and 7.21 in experiment [10] (setting [31]).
Regarding DPVVYDAKF, the pKd in experiment [7] (setting [32]) was 6.02; in experiment [9] (setting [32]) it was 6.19.
In experiment [11], QSRKEFMSM gave a pKd of 7.18.
Sequence ETIVLLRAF showed a negative-log Kd (pKd) in [12] of 7.56.
FMGRIRSVY: the pKd in experiment [13] (setting [30]) is 5.65; in experiment [14] it was not above 4.11; in [15], 9.80; in experiment [16], not above 4.25; in [17], 8.77; in experiment [18] it was 5.04. Moreover, the negative-log Kd (pKd) is 6.91 in [19]; 5.22 in experiment [20]; 6.22 in [21]; 5.63 in [22]; 6.41 in experiment [23]; 5.23 in experiment [24]. Moreover, the pKd in experiment [25] was 4.74.
On to MSIPATLFVW, for which the figures for the pKd in experiment [13] (setting [32]) and in experiment [9] (setting [32]) were 4.81 and 6.38, respectively.
Take LPEDIEQMAN: the pKd in experiment [7] (setting [33]) was 6.05; in experiment [9] (setting [33]), 5.68; in [10] (setting [33]), not above 4.16.
For the sequence TPQPMELKY, the negative logarithm of the Kd (pKd) in experiment [7] (setting [33]) is 7.97; in experiment [9] (setting [33]), 7.74.
With YTALFSGVSW, the negative-log Kd (pKd) in [13] (setting [33]) was 6.04; in experiment [3] (setting [33]), 5.68; in experiment [9] (setting [33]) it was 7.74.
As to LPAIVREAIK, the negative-log Kd (pKd) in experiment [7] (setting [34]) was 5.26; in [9] (setting [34]) it was 5.33; in experiment [10] (setting [34]), not above 4.16.
For the sequence MPSMKRFRRE, the values for the pKd in experiment [7] (setting [34]), in [9] (setting [34]) and in [10] (setting [34]) were not above 4.51, not above 4.69 and not above 4.16, respectively.
For the sequence LVIDNLYGF, the pKd in [26] was 7.91.
